Legend:
[1] = Catechol oxidase activity assay: initial rate of 3-methoxycatechol oxidation at 400 nm (pH, copper and temperature optima); format: biochemical; settings: for pHopt: 3-methoxycatechol oxidation, room temperature, 10 μM CuSO4, Carmody buffers pH3-9; for T range / pH range: >50% of maximum activity; for [CuSO4] range: >90% of maximum activity; for Topt: A400 after 1 h incubation, 20 to 70° C., 50 mM Bis-Tris pH 7.0, 20 or 50 μM copper; for [CuSO4]opt: at optimal pH, 50 mM Bis-Tris buffer pH 7.0, CuSO4 varied 1-1000 μM
Method: PPO activity was determined by measuring the initial rate of 3-methoxycatechol oxidation at 400 nm (extinction coefficient used: ε 1200 M^−1cm^−1). One unit of activity is defined as the amount of PPO activity that oxidizes 1 μmol of 3-methoxycatechol to quinone per minute. Substrate was used at a concentration of 4 mM.
The pH optima were determined by measuring the initial rate of 3-methoxycatechol oxidation with varying pHs, at room temperature and using a CuSO4 concentration of 10 μM. The pH was varied in the range of pH3-9 using Carmody buffers. Enzyme loading was applied resulting in A400 absorbance values in the range of 0.1-1. Protein concentration was determined using the BCA method.
Optimal copper concentrations for the PPOs were determined at the optimal pH by varying the concentration of CuSO4 in the range of 1-1000 μM. In these experiments the pH was controlled using 50 mM Bis-Tris buffer pH 7.0.
Temperature optima were determined by measuring A400 absorbance after 1 h incubation at temperatures in the range of 20 to 70° C. In these experiments the pH was controlled using 50 mM Bis-Tris buffer pH 7.0. Copper concentrations of (20 or 50 μM) were used to prevent chemical oxidation as background activity at higher copper concentrations.

[2] = Conversion of syringic acid, sinapic acid and syringol by crude PPOs, absorbance at 400 nm; format: biochemical; settings: 4 mM substrate, crude PPO 8.2 μg/mL, pH 6.0 or 7.0, 50 μM CuSO4, room temperature, 2, 22 and 118 h
Method: Syringic acid, sinapic acid and syringol (4 mM) were incubated with crude PPO2, 4, 6 and 7 from Example 5 in 100 mM BisTris buffer pH 6.0 or 7.0 with 50 μM CuSO4. Crude PPOs were dosed on target protein with a final concentration of 8.2 μg/mL. Substrate blanks prepared without the addition of enzyme and enzyme blanks without the addition of substrate were included. Incubations were performed in microtiterplates with a total reaction volume of 150 μL at room temperature for approximately 120 h. After 2, 22 and 118 h absorbance at 400 nm was measured.

[3] = target: T1, RAC incubated with LPMO9B (Thermothelomyces thermophilus, UniProt G2QCJ3); test: RAC hydrolysis assay with LPMO9B and PPO2, PPO7 or AbTyr in the presence of sinapic acid or syringic acid; format: biochemical, Myceliophthora thermophila; settings: for Activity: total release of non-oxidized and C1-oxidized gluco-oligosaccharides from RAC: LPMO9B 5 μg/ml alone = 100%, or with added enzyme, pH 5.0, 50° C., 24 h
T1 construct: made in house; host or cells: Myceliophthora thermophila C1 strain W1L#100.1Δpyr5ΔAlp1
T1 sequence (G2QCJ3 19-323): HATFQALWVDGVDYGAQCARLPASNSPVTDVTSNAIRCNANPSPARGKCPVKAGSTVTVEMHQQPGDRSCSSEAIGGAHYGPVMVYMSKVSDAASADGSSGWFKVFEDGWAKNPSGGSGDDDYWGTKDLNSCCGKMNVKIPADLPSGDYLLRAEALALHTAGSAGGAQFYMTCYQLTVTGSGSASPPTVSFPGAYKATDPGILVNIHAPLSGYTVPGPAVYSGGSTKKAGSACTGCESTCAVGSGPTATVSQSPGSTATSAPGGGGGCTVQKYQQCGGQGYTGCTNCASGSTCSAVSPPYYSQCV
Method: Reducing agents sinapic acid and syringic acid were obtained from Sigma-Aldrich (St. Louis, Mo., USA). RAC was prepared from Avicel by swelling it in phosphoric acid, (Zhang Y H P, Cui J, Lynd L R, & Kuang L R (2006) A transition from cellulose swelling to cellulose dissolution by o-phosphoric acid: Evidence from enzymatic hydrolysis and supramolecular structure. Biomacromolecules 7(2):644-648.). RAC was dissolved in 50 mM phospate buffer (pH 5.0) to a final concentration of 1.5 mg/ml. Copper chloride was added to a final concentration of 2.5 μM and dimethoxy containg reducing agent sinapic acid or syringic acid to a final concentration of 2 mM. LPMO9B (5 μg/ml) with or without PPO2 (5 μg/ml), PPO7 (5 μg/ml) or AbTyr (7.5 U/ml) were added and incubated for 24 h at 50° C. in a head-over-tail rotator in portions of 1 mL total volume (Stuart® rotator, Bibby Scientific LTD, Stone, UK) at 20 rpm. Products were analysed by HPAEC and MALDI-TOF MS as described previously. (Frommhagen M, Sforza S, Westphal A H, Visser J, Hinz S W, Koetsier M J et al. Discovery of the combined oxidative cleavage of plant xylan and cellulose by a new fungal polysaccharide monooxygenase. Biotechnology for Biofuels. 2015; 8:101. doi:10.1186/s13068-015-0284-1). The Activity denoted as “Activity*” represents total release of non-oxidized and C1-oxidized gluco-oligosaccharides from RAC incubated with LPMO9B in the presence of sinapic or syringic acid as a reducing agent and with addition of either AbTyr, PPO7 or PPO2. […] Standard deviations were less than 2%.

[4] = target: T1, RAC incubated with LPMO9B; test: RAC hydrolysis assay with LPMO9B and PPO7 or AbTyr in the presence of phenolic reducing agents; format: biochemical, Myceliophthora thermophila; settings: for Activity: total release of non-oxidized and C1-oxidized gluco-oligosaccharides from RAC: LPMO9B alone = 100%, or with added enzyme, pH 5.0, 50° C., 24 h
Method: Phenolic reducing agents were obtained from Sigma-Aldrich (St. Louis, Mo., USA). RAC was prepared as described above and dissolved in 50 mM phospate buffer (pH 5.0) to a final concentration of 1.5 mg/ml. Copper chloride was added to a final concentration of 2.5 μM and a phenolic reducing agent to a final concentration of 2 mM. LPMO9B (5 μg/ml) with or without PPO7 (5 μg/ml) or AbTyr (7.5 U/ml) were added and incubated for 24 h at 50° C. in a head-over-tail rotator in portions of 1 mL total volume (Stuart® rotator, Bibby Scientific LTD, Stone, UK) at 20 rpm. Products were analysed by HPAEC and MALDI-TOF MS as described previously. (Frommhagen M, Sforza S, Westphal A H, Visser J, Hinz S W, Koetsier M J et al. Discovery of the combined oxidative cleavage of plant xylan and cellulose by a new fungal polysaccharide monooxygenase. Biotechnology for Biofuels. 2015; 8:101. doi:10.1186/s13068-015-0284-1). The Activity denoted as Activity * represents total release of non-oxidized and C1-oxidized gluco-oligosaccharides from RAC incubated with LPMO9B in the presence of a phenolic reducing agent and with addition of either AbTyr or PPO7. […] Standard deviations were less than 2%.

B1: PPO4: Myceliophthora thermophila C1 polyphenoloxidase with demethylating activity, mature form SEQ ID NO: 37 (protein, listed as Myceliophthora thermophila)
chain: DAVLDLQEKGRPAIDAQLAKSTTCTKEKLQVRREWGDISAEEKKAYIAAMLCIMEKPSRLDPNQFPGAKSRYDDFVVVHMNQTLSIHGTGNFLSWHRYYTWVFERALQEECGYNGTQPYWDWGRWADDPENSPIFDGSDTSLSGNGEYIEHRASGFIPAGNGGGCVKSGPFKDMVVHLGPVAPAIDPAPPANPRRDGYGDNPRCLRRDISNQLSSKYARTQDIVDLITTSADIGTFQTVMQGAGGFGVGPGGMGVHAAGHFTIAGDPGGDFYTSPNDPAFWVHHGMIDRTWTIWQSQDLDNRLQVIAGGSSMMGGPPQTLDDPVDLGVVADKVYPIRDLVSVVDGPFCYVYE
- pHopt [1]: 7.0
- T range [1]: 30-60 °C
- pH range [1]: 5.0-7.5
- [CuSO4] range [1]: 20 to 1000 µM
- Topt [1]: 55 °C
- [CuSO4]opt [1]: 200 µM
- Conversion of substrates (absorbance at 400 nm) [2]: only able to use syringic acid as a substrate

B2: PPO6: Myceliophthora thermophila C1 polyphenoloxidase with demethylating activity, mature form SEQ ID NO: 41 (protein, listed as Myceliophthora thermophila)
chain: AVKTVVITATTTVCPLSTRVCHGSSMISQSTNAPCSESTGITGSQSTAVTIPQSTDIISSQFSQFTDTTSSLSTGVACSSSPCPSNSQSTGTTSFESTGTTISQPTAVTNSSSTCLTSSQSTDAPSSESTGITISQSTGVTSSQSMSTPTSKSTAVPSSQSARVSTTSSSAKPSSTTETRPEPTLPNRAYPADIVDKLRDSGVDKLKEYLKSNPSNTGCTLENASIRREWSDLSVAEREEYIAAVKCLQSASPKSSKQQVPGARSRFDDFVATHINQTDSIHYTANFLSWHRYYVWAYEKALREECGYTGFQPYWNWDRYAADPANSPLFSGNSSSLSGNSVNGGCVTTGPFADMKVNLGPGASLAYNPRCLKRNISKSYAAMTTADKTYALITGSADIARFQDTMQAVPGVHAGGHFTIGGDPGGDVYSSPGDPAFWLHHAMIDRVWWIWQTHGLPGRLSEVAGSVAGSSRPGSGKDLVNLGVNGPAVAIENLLNTVGGLDGKMCYIYL
- pHopt [1]: 7.0
- T range [1]: 20-50 °C
- pH range [1]: 6.0-8.5
- [CuSO4] range [1]: 50 to 1000 µM
- Topt [1]: 30 °C
- [CuSO4]opt [1]: 200 µM
- Conversion of substrates (absorbance at 400 nm) [2]: able to convert syringic acid, sinapic acid and syringol

B3: LPMO9B: Myceliophthora thermophila lytic polysaccharide monooxygenase, mature amino acid sequence SEQ ID NO: 93 (protein, listed as Myceliophthora thermophila)
chain: T1 sequence (G2QCJ3 19-323)
- Activity in the absence of a reducing agent ([3]; no reducing agent): no activity was detected
- Activity: total release of non-oxidized and C1-oxidized gluco-oligosaccharides from RAC ([3]; reducing agent sinapic acid 2 mM): 100%
- Activity: total release of non-oxidized and C1-oxidized gluco-oligosaccharides from RAC ([3]; reducing agent syringic acid 2 mM): 100%
- Activity in the absence of a reducing agent ([4]; no reducing agent): no activity was detected
- Activity: total release of non-oxidized and C1-oxidized gluco-oligosaccharides from RAC ([4]; reducing agent 3,4-dihydroxy-5-methoxybenzoic acid 2 mM): 100%
- Activity: total release of non-oxidized and C1-oxidized gluco-oligosaccharides from RAC ([4]; reducing agent 3,4-dihydroxy-5-methoxycinnamic acid 2 mM): 100%
- Activity: total release of non-oxidized and C1-oxidized gluco-oligosaccharides from RAC ([4]; reducing agent 3,4-dihydroxybenzoic acid 2 mM): 100%
- Activity: total release of non-oxidized and C1-oxidized gluco-oligosaccharides from RAC ([4]; reducing agent 3-hydroxy-4-methoxycinnamic acid 2 mM): 100%
- Activity: total release of non-oxidized and C1-oxidized gluco-oligosaccharides from RAC ([4]; reducing agent 3-methylcatechol 2 mM): 100%
- Activity: total release of non-oxidized and C1-oxidized gluco-oligosaccharides from RAC ([4]; reducing agent 4-allyl-2,4-methoxyphenol 2 mM): 100%
- Activity: total release of non-oxidized and C1-oxidized gluco-oligosaccharides from RAC ([4]; reducing agent 4-hydroxy-3-methoxyphenylactone 2 mM): 100%
- Activity: total release of non-oxidized and C1-oxidized gluco-oligosaccharides from RAC ([4]; reducing agent caffeic acid 2 mM): 100%
- Activity: total release of non-oxidized and C1-oxidized gluco-oligosaccharides from RAC ([4]; reducing agent coniferyl aldehyde 2 mM): 100%
- Activity: total release of non-oxidized and C1-oxidized gluco-oligosaccharides from RAC ([4]; reducing agent ferulic acid 2 mM): 100%
- Activity: total release of non-oxidized and C1-oxidized gluco-oligosaccharides from RAC ([4]; reducing agent gallic acid 2 mM): 100%
- Activity: total release of non-oxidized and C1-oxidized gluco-oligosaccharides from RAC ([4]; reducing agent guaiacol 2 mM): 100%
- Activity: total release of non-oxidized and C1-oxidized gluco-oligosaccharides from RAC ([4]; reducing agent hesperidin 2 mM): 100%
- Activity: total release of non-oxidized and C1-oxidized gluco-oligosaccharides from RAC ([4]; reducing agent homovanillic acid 2 mM): 100%
- Activity: total release of non-oxidized and C1-oxidized gluco-oligosaccharides from RAC ([4]; reducing agent vanillic acid 2 mM): 100%

Reference: patent US20190002846A1, “POLYPEPTIDES HAVING DEMETHYLATING ACTIVITY” (Genencor International B.V., priority 2015, published 2019)
